Experimental data reported in patent publication US20240254220A1, “COMBINED THERAPY USING ANTI-CD300C ANTIBODY” (CentricsBio, Inc., priority 2021, published 2024).

Experiments:
[1] = tested on: colon cancer cell line (CT26) tumor; experiment: In vivo cancer growth inhibition, CT26 model, CL7 dose range; design: species or system BALB/c mice; settings: 1, 5, 10 or 25 mg/kg i.p. on D11, D14, D18, D21; 25 days
Description: In order to identify anticancer effects of the anti-CD300c monoclonal antibody CL7 under in vivo conditions, a colon cancer cell line (CT26) at 2×10^5 cells was transplanted by subcutaneous injection into 8-week-old BALB/c mice to prepare syngeneic mouse tumor models. Animal breeding and experiments were all conducted in a SPF facility. On day 11 (D11) after the transplantation of the colon cancer cell line, the mice with a tumor size of 50 mm^3 to 100 mm^3 were administered the anti-CD300c monoclonal antibody 1 mg/kg, 5 mg/kg, 10 mg/kg, or 25 mg/kg, respectively, and for a control group, the mice were administered the same amount of phosphate buffered saline (PBS). Specifically, the mice were intraperitoneally injected with each dosage twice a week for two weeks (a total of 4 times on D11, D14, D18, and D21). The tumor volume was measured for 25 days.

CD300c antigen = target: T1, CD300c antigen (Homo sapiens, UniProt Q08708); experiment: Binding ELISA of CL7 (Experimental Example 2.3); settings: CL7 diluted from 10 μg/mL
T1 sequence (Q08708 21-224): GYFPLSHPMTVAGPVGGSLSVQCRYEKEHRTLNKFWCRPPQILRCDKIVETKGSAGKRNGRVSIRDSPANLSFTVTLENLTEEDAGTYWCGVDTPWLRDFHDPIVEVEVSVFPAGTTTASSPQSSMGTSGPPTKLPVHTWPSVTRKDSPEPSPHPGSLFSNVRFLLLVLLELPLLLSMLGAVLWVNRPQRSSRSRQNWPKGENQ
Description: CD300c antigen (250 ug/mL) was diluted to a concentration of 800 ng/mL in coating buffer (0.1 M sodium carbon ate, pH 9.0), placed into a 96-well microplate at 100 μL per well, and incubated at 4° C. overnight. The next day, the microplate was washed three times with 200 μL of PBST. Thereafter, 200 μL of a blocking buffer (5% skim milk) was added thereto, followed by blocking at room temperature for 1 hour. The anti-CD300c monoclonal antibody CL7 was diluted to 200 μg/mL in PBS, and the concentration thereof was checked by measurement using Nanodrop (product name: NanoDrop One/One, manufactured by Thermo Fisher Scientific). Subsequently, CL7 was diluted in quadruplicate with PBS starting from 10 μg/mL, and added at 100 μL each, followed by incubation at room temperature for 1 hour. After the incubation, the microplate was washed three times with […] of PBST. A secondary antibody (conjugated anti-Fc IgG) was diluted 1:10,000 in blocking buffer, and added at 100 μL, followed by incubation at room temperature for 1 hour, and then washed three times with 200 μL of PBST. […] Then, 50 μL of 1 N sulfuric acid was added to stop development, and measurement was performed at 450 nm using a microplate reader (product name: Varioskan LUX) to obtain binding affinity results.

[2] = tested on: colon cancer cell line (CT26) tumor; experiment: Tumor-infiltrating lymphocytes and macrophages in CT26 cancer tissue after combined use; assay type: in vivo, BALB/c mice
Text: In order to identify effects of the anti-CD300c monoclonal antibody on tumor-infiltrating lymphocytes (TIL) in a tumor microenvironment (TME), on day 25 of an experiment conducted by the same method as in Experimental Example 7.1, the mice were euthanized, and injected intravascularly with 1% paraformaldehyde (PFA) to perform perfusion, and then the cancer tissue was obtained. The obtained cancer tissue was fixed using 1% PFA, and sequentially dehydrated using 10%, 20%, and 30% sucrose solutions. The dehydrated cancer tissue was frozen in OCT compound (optimal cutting temperature compound), and then the cancer tissue was sectioned to a thickness of 50 μm using a cryotome. The tissue was incubated at 37° C. for 1 hour in a mixed solution of collagenase D (20 mg/mL) and DNase I (2 mg/mL). Thereafter, the resultant product was filtered through a 70 μm cell strainer, followed by the lysis of red blood cells, and then again filtered through a nylon mesh for making single cells. To suppress non-specific reactions in the single cell suspension, the cells were incubated with a CD16/32 antibody (Invitrogen) for 1 hour, and then cell viability was identified, and CD8+ T cells and CD31+ cancer blood vessel cells, which are tumor-infiltrating lymphocyte markers, were stained.
In order to identify whether the anti-CD300c monoclonal antibody increases M1 macrophages in the cancer tissue of mouse models, the cancer tissue sections prepared by the same method as in Experimental Example 7.2 were stained with antibodies to the M1 macrophage marker iNOS and the M2 macrophage marker CD206, and analyzed by FACS.
In order to identify whether the anti-CD300c monoclonal antibody CL7 promotes CD8+ T cell immunity in mouse tumor models, on day 25 of the experiment conducted by the same method as in Experimental Example 7.1, the mice were euthanized, and injected intravascularly with 1% paraformaldehyde (PFA) to perform perfusion, and then the cancer tissue was obtained. The obtained cancer tissue was fixed using 1% PFA, and sequentially dehydrated using 10%, 20%, and 30% sucrose solutions. […]

[3] = CT26 cancer tissue, day 25, FACS

B1: CL7: anti-CD300c monoclonal antibody, VH3VL1 phage library, VH SEQ ID 327, VL SEQ ID 328 (antibody, V domains shown)
VH: EVQLLESGGGLVQPGGSLRLSCAASGFTFSRYAMSWVRQAPGKGLEWVSAISGSGGSTYYADSVKGRFTISRDNSKNTLYLQMNSLRAEDTAVYYCARSSQGIFDIWGQGTLVTVSS
VL: QSVLTQPPSASGTPGQRVTISCSGNNIGTRRVHWYQQLPDTAPKLLIYSKNNRPSGVPDRFSGSKSGTSASLAISGLRSEDEADYYCAAWDDSLSGPVFGGGTKLTVL
modifications: CL7 Heavy Chain Variable Region; CL7 Light Chain Variable Region
growth of CT26 colon cancer (tumor volume) [1]: delayed the growth of CT26 colon cancer in a dose-dependent manner | binding to CD300c (CD300c antigen): bound to CD300c in a concentration-dependent manner | M1 macrophages (iNOS) in cancer tissue [2, 3]: remarkably increased | M2 macrophages (CD206) in cancer tissue [2, 3]: hardly observed | CD8+ T cells in cancer tissue ([2]; Experimental Example 7.4, CT26 cancer tissue sections, day 25): remarkably increased
